Laboratory results reported in patent US20110230406A1 (ADVANCED TECHNOLOGIES AND REGENERATIVE MEDICINE, published 2011).
No end group written: not given here.

Columns and labels:
Streptavidin = test: phage ELISA titration, streptavidin-coated wells without BMP-2, HRP anti-M13 antibody, luminescence
Description: (§1) 96-well black ELISA plates were coated with streptavidin (Rows A through D), hIgG (Rows E and F) and human serum albumin (Rows G and H), at a concentration of 5 micrograms/mL in PBS. Plates were incubated overnight at 4° C. Plates were washed 3 times with TBST using a plate washer. To the streptavidin-coated wells in rows C and D, 100 microliters of a 4 micrograms/mL solution of biotinylated-BMP-2 (R&D Systems, Minneapolis, Minn., Item number 355-BM/CF), was introduced and allowed to sit at room temperature for 30 minutes. To all other wells, 100 microliters of PBS was introduced. The plates were again washed 3 times with TBST using the plate washer. The wells were then blocked with 250 microliters of a 3% dehydrated milk suspension in TBST and allowed to sit at room temperature for a minimum of 1 hour. Using phage concentrations determined by the phage titrations, dilutions of the phage stock solutions were performed in a separate 96-well plate to result in phage concentrations of 10¹⁰, 10⁹, 10⁸, 10⁷, 10⁶ and 10⁵ phage/well. After blocking, the ELISA plate was washed 3 times with TBST and 100 microliters of the phage dilutions were introduced to the respective ELISA plates and allowed to sit at room temperature for a minimum of 1 hour. […] The luminescence was read using a luminometer set with a gain of 150.

[1] = molecular target: T1, biotinylated BMP-2 (R&D Systems, Item number 355-BM/CF) (human, UniProt P12643 283-396, biotinylated (sites not given)); test: phage ELISA titration, biotinylated BMP-2 captured on streptavidin-coated wells, HRP anti-M13 antibody, luminescence
T1 construct: Bought protein, biotinylated, captured on streptavidin plates (phage ELISA) or streptavidin donor beads (ALPHA); also called bone morphogenic protein-2
Description: (§2) 96-well black ELISA plates were coated with streptavidin (Rows A through D), hIgG (Rows E and F) and human serum albumin (Rows G and H), at a concentration of 5 micrograms/mL in PBS. Plates were incubated overnight at 4° C. Plates were washed 3 times with TBST using a plate washer. To the streptavidin-coated wells in rows C and D, 100 microliters of a 4 micrograms/mL solution of biotinylated-BMP-2 (R&D Systems, Minneapolis, Minn., Item number 355-BM/CF), was introduced and allowed to sit at room temperature for 30 minutes. To all other wells, 100 microliters of PBS was introduced. The plates were again washed 3 times with TBST using the plate washer. The wells were then blocked with 250 microliters of a 3% dehydrated milk suspension in TBST and allowed to sit at room temperature for a minimum of 1 hour. Using phage concentrations determined by the phage titrations, dilutions of the phage stock solutions were performed in a separate 96-well plate to result in phage concentrations of 10¹⁰, 10⁹, 10⁸, 10⁷, 10⁶ and 10⁵ phage/well. After blocking, the ELISA plate was washed 3 times with TBST and 100 microliters of the phage dilutions were introduced to the respective ELISA plates and allowed to sit at room temperature for a minimum of 1 hour. The ELISA plate was again washed 3 times with TBST using the plate washer and 100 microliters of an HRP-conjugated Anti-M13 Phage Mab (1:5000 dilution in PBS) was introduced to each well. The plates were allowed to sit at room temperature for 1 hour after which time the plates were washed 3 times with TBST. Next, a POD HRP-substrate was introduced to each well. The luminescence was read using a luminometer set with a gain of 150.

human serum albumin [2] = molecular target: T2, human serum albumin (human, UniProt P02768 25-609); test: phage ELISA, HSA-coated wells, HRP anti-M13 antibody, luminescence
T2 construct: Cross-reactivity control coated at 5 micrograms/mL; also called HSA
Description: as §2

human IgG = molecular target: T3, human IgG (human); test: phage ELISA titration, hIgG-coated wells, HRP anti-M13 antibody, luminescence
T3 construct: Cross-reactivity control coated at 5 micrograms/mL; also called hIgG
Description: as §1

human serum albumin [3] = molecular target: T2, human serum albumin; test: phage ELISA titration, HSA-coated wells, HRP anti-M13 antibody, luminescence
Description: as §1

[4] = molecular target: T1, biotinylated BMP-2 (R&D Systems, Item …); test: ALPHA, biotinylated BMP-2 at 0.825 micrograms/mL, Ni-acceptor and streptavidin-donor beads
Description: Diluted stock of biotinylated BMP-2 (R&D Systems, Minneapolis, Minn., Item number 355-BM/CF) at 3.3 micrograms/ml was prepared in 2× assay buffer (PBS, 0.01% Tween-80, 0.05% BSA). Chemically synthesized peptides having SEQ ID NO: 1, SEQ ID NO: 2, SEQ ID NO: 3, and SEQ ID NO: 6 were prepared using standard, automated Fluorenylmethyloxycarbonyl (Fmoc) solid phase peptide synthesis procedures. Each peptide solution for the assay was prepared from a 100 microgram/mL stock solution. The stock solution was serially diluted in ½ log steps in assay buffer resulting in peptide concentrations of 100, 33.3, 11.1, 3.70, 1.23, 0.41, 0.14, 0.046, 0.015, 0.0051, 0.0017 and 0.00056 micrograms/mL. Subsequently, serially diluted peptides were added to the corresponding wells containing the 10 microliters of the 3.3 microgram/mL solution of biotinylated BMP-2. Final assay test concentration for biotinylated BMP-2 was 0.825 micrograms/mL. Final peptide concentrations were 25, 8.3, 2.8, 0.93, 0.31, 0.10, 0.03, 0.01, 0.003, 0.001, 0.0003 and 0.0001 micrograms/mL. Next, Nickel (Ni)-acceptor and streptavidin (SA)-donor beads (Perkin Elmer, Waltham, Mass., Item number 6760619M) were diluted 1:100 in assay buffer prior to adding 20 microliters to each test well. […] The emission of the plate was read using a dual wavelength fluorometer (Perkin Elmer (Waltham, Mass.) Envision 2101 Multilabel Reader).

[5] = molecular target: T1, biotinylated BMP-2 (R&D Systems, Item …); test: mutant phage ELISA titration on BMP-2 by the procedure of Example 3
Description: as §2, with “To” for “96-well black ELISA plates were coated with streptavidin (Rows A through D), hIgG (Rows E and F) and human serum albumin (Rows G and H), at a concentration of 5 micrograms/mL in PBS. Plates were incubated overnight at 4° C. Plates were washed 3 times with TBST using a plate washer. To the streptavidin-coated wells in rows C and D, 100 microliters of a 4 micrograms/mL solution of biotinylated-BMP-2 (R&D Systems, Minneapolis, Minn., Item number 355-BM/CF), was introduced and allowed to sit at room temperature for 30 minutes. To”
The respective custom oligonucleotide was obtained from Integrated DNA Technologies. The oligonucletides were inserted into the pIX gene using standard protocols. First, the oligonucletides were phosphorylated using T4 polynucleotide kinase. Next, the phosphorylated oligonucletides were annealed to the ssDNA template. Using the Kunkel method, the annealed DNA was ligated using T4 DNA ligase and T7 DNA polymerase. The resultant DNA was isolated using isopropanol precipitation and a gel was run to confirm the reaction. Lastly, electro-competent E. coli cells were transformed with the purified DNA and were plated out onto 2xYT/Tet/Xgal agar plates and allowed to grow overnight to isolate single colonies. An aliquot of the transformed cells was allowed to grow overnight at 37° C. while shaking in 50 mL 2xYT/tet media. The phage were then PEG precipitated following the procedure in Example 1. A phage titration was performed to determine the concentration of phage for the ELISA assay as described in Example 2. ELISA assays were performed following the procedure in Example 3.

[6] = molecular target: T4, rhBMP-2 (R&D Systems, Item number 355-BM/CF) (human, UniProt P12643 283-396); test: SPR (Biacore S51), rhBMP-2 on CM4 chip, peptide at 5 micromolar, 1:1 Langmuir fit, N=3
T4 construct: Coupled to a CM4 chip by EDC/NHS in SPR; also called human recombinant BMP-2
Description: Peptide binding affinity to BMP-2 was evaluated for SEQ ID NO: 3 and SEQ ID NO: 6 by surface plasmon resonance measurements. Measurements were performed on a Biacore S51 (Biacore Life Sciences, Piscataway, N.J.) instrument using a CM4 Series-S sensor chip. rhBMP-2 (R&D Systems, Minneapolis, Minn., Item number 355-BM/CF) was immobilized on the sensor chip using 1-ethyl-3[3-dimethylaminopropyl]carbodiimide hydrochloride (EDC)/N-hydroxysuccinimide (NHS) coupling chemistry. […] Data were fit to a 1:1 Langmuir binding model using Biacore Analysis Software (Biacore Life Sciences, Piscataway, N.J.).
The data shown in Table 2 are average equilibrium dissociation constants with an N value of 3.

T1 sequence (P12643 283-396 limits assumed): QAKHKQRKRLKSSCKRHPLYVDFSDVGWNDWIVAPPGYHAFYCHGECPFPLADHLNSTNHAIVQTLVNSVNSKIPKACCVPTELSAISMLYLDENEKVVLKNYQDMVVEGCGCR
T4 sequence (P12643 283-396 limits assumed): as above

B1: phage displaying the peptide of SEQ ID NO: 3 on the pIX minor coat protein (peptide)
peptide: AGYTSFALLKSAESTLP
modifications: also: displayed on phage pIX coat protein fusion
notes: not shown: pIX minor coat protein of the phage that carries the peptide
binding result (Streptavidin): no binding (tested: 1.00E+10 phage/well) | EC50 (read off the curve) [1]: ~1e+08 phage/well | binding result (human serum albumin [2]): no binding (tested: 10^9 phage/mL)

B2: phage displaying the peptide of SEQ ID NO: 4 on the pIX minor coat protein (peptide)
peptide: AGFRWWHTQPAHTLSYT
modifications: also: displayed on phage pIX minor coat protein, junction not given here
notes: as for B1
binding result [1]: binds | EC50 (read off the curve) (human IgG): ~1e+08 phage/well | binding result (human serum albumin [3]): binds

B3: phage displaying the peptide of SEQ ID NO: 7 on the pIX minor coat protein (peptide)
peptide: AGYRCSELPLYCST
modifications: cysteine pairing not given here; also: displayed on phage pIX minor coat protein
notes: as for B1
binding result [1]: binds

AGLPLQSMSRLSYDSLS (Fmoc solid phase synthesis) [chemically synthesized peptide having SEQ ID NO: 1]
binding result [4]: binds

AGPPGPYIAASAFLALK (Fmoc solid phase synthesis) [chemically synthesized peptide having SEQ ID NO: 2]
binding result [4]: binds

AGRDSFNLLTSSSSPST [SEQ ID NO: 31]
binding result [5]: binds

AGRDSFNLLTSSPLSSS [SEQ ID NO: 32]
binding result [5]: binds

AGYTSFALSSSAESTLP [SEQ ID NO: 26]
binding result [5]: no binding (tested: 1.00E+10 phage/well)

AGRDSFNLSSSSPLPST [SEQ ID NO: 30]
binding result [5]: no binding (tested: 1.00E+10 phage/well)

B4: chemically synthesized peptide having SEQ ID NO: 6 (peptide)
peptide: AGRDSFNLLTSSPLPST
notes: Fmoc solid phase synthesis; used in ALPHA, SPR and the alkaline phosphatase assay
Kd [6]: 303 nM

B5: chemically synthesized peptide having SEQ ID NO: 3 (peptide)
peptide: AGYTSFALLKSAESTLP
notes: Fmoc solid phase synthesis; used in ALPHA and SPR
Kd [6]: 398 nM
